The test system of this data set is GII.4 Sydney (SYV) norovirus VLP, assembled capsid protein VP1 (Human norovirus GII.4 Sydney). The data set is described as follows: ELASA (plate binding). The note with it: VLP heated 75 C 1 min (partly denatured); 1 uM aptamer; ELASA: VLPs on polystyrene plate, blocked with 5% skim milk in PBS + 0.05% Tween 20 with 10 nM unrelated primers (2 h, room temperature), 1 uM biotinylated ….

As for “AGTATACGTATTACCTGCAGCTGGGAAGAGGTCCGGTAAATGCAGGGTCAGCCCGGAGAGCGATATCTCGGAGATCTTGC [M6-2]”, the binding signal (% of signal with untreated VLP) came out at 20.1.

(Values after paper PMC5093151.)
